According to PMC3425544, “The S100A10 Subunit of the Annexin A2 Heterotetramer Facilitates L2-Mediated Human Papillomavirus Infection” (PLoS ONE, 2012):
No end group written: not given here.

Legend:
[1] = test system: A2t (annexin A2 heterotetramer); assay: EPR binding of L2 peptide to A2t; design: species or system human; details: scrambled competitor 5∶1 molar ratio
Source text: Next, we wanted to determine if there was a specific interaction between the L2_108–126 peptide and A2t using electron paramagnetic resonance (EPR) spectroscopy. EPR is a method of magnetic resonance spectroscopy measuring unpaired electrons whose underlying basic concepts are not unlike the more widely used technique of nuclear magnetic resonance (NMR) (reviewed in [43]). When coupled with site-directed paramagnetic-labeling, such as the attachment of a moiety with an unpaired electron to a cysteine residue, EPR can be used to obtain structural information within a small vicinity of the paramagnetic-label’s positions along the protein sequence. As a paramagnetic-label becomes locally constrained, such as when bound to another protein, its spectra will drastically change as visualized by a decrease in line amplitude and increased line-broadening. Therefore, EPR provides an in vitro biochemical method that measures protein-protein interactions by monitoring changes in the spectra recorded for a labeled protein in different experimental settings.
For our purposes, an N-terminal cysteine (with a 3 native aa spacer) contained in the L2_108–126 peptide (C-IVS-[…]) was paramagnetic-labeled (an unpaired-electron-containing small molecule was cross-linked via a disulfide bond to the peptide), and its spectra were analyzed after incubation with and without purified human recombinant A2t or controls. […]
Recombinant annexin A2 was expressed in BL21(DE3) Escherichia coli cells and purified using reversible Ca^2+-dependent binding to negatively charged phospholipid vesicles followed by size exclusion chromatography. […] Concentrations of all proteins and peptides, including the A2t complex, were determined using bicinchoninic acid assays (Pierce Thermo Scientific, Rockford, IL) compared to measured absorbance of albumin standards at 562 nm. […]

S100A10 subunit of A2t = assay: EPR binding of L2 peptide to S100A10; details: EPR
Method: (§1) Recombinant annexin A2 was expressed in BL21(DE3) Escherichia coli cells and purified using reversible Ca^2+-dependent binding to negatively charged phospholipid vesicles followed by size exclusion chromatography. A pET23A vector containing the S100A10 sequence (a gift from Volker Gerke) was expressed in BL21(DE3) cells as previously described. Both proteins were stored at 4°C in 20 mM HEPES buffer at pH 7.4, containing 100 mM NaCl with the addition of 1 mM dithiothreitol. Concentrations of all proteins and peptides, including the A2t complex, were determined using bicinchoninic acid assays (Pierce Thermo Scientific, Rockford, IL) compared to measured absorbance of albumin standards at 562 nm. Purified annexin A2 and S100A10 were combined at a molar ratio of 1∶1 and concentrated to over 8 µg/µl. The mixture was incubated overnight at 4°C, and then loaded onto a superdex 200 10/300 GL (GE Healthcare USA) column equilibrated in the previously mentioned HEPES buffer. The eluted A2t peak was collected and subjected to peptide binding assays.
(§2) The L2_108–126 peptides used in our EPR studies were synthesized with a cysteine at the N-terminus, and followed by a spacer of 3 physiological amino acids (C-IVS) preceding the canonical L2_108–126 and L2 scrambled sequences (C-IVS-[…] and C-IVS-[…] respectively). Peptides were combined with 8× molar excess paramagnetic label (1-oxyl-2, 2, 5, 5-tetramethyl-Δ3-pyrroline-3-methyl) (R1) methanethiosulfonate (MTSL), (Toronto Research Chemicals, Canada) and left to react overnight at 4°C. Free label was removed by gel filtration (PD10 GE, United Kingdom). All peptides were solubilized into HEPES buffer. For competition assays, the scrambled peptide was non-paramagnetic labeled with an N-acetylated MTSL paramagnetic-label analog (1-acetyl-2,2,5,5- tetramethyl-Δ3-pyrroline-3-methyl) (R1′) at an 8× molar excess to emulate the paramagnetic label on control peptides. Binding interactions were examined by combining paramagnetically-labeled L2 peptide with A2t, BSA, ANXA2, or S100A10 (20 µM, 100 µM, 100 µM, 100 µM, and 100 µM respectively) in 10 µL volumes of the HEPES buffer, confined by glass capillaries, and measured at room temperature over a period of 24 hours using a Bruker EMX X-band EPR spectrometer. For the cysteine blocked S100A10, S100A10 was treated with R1′ and excess label was removed via gel filtration (see above) before the addition of paramagnetic labeled peptides. The experiments were done in triplicate with measurements taken at 12 db, in 5 scan intervals. All spectra were normalized to the same number of scans. To quantify the amount of bound peptide spectra of all tested proteins in combination with the L2_108–126 or ScrL2 peptides were compared to the spectra of L2_108–126 or ScrL2 peptides alone in solution using a spectra analyzing software (EPR 130, University of California, Los Angeles). By subtracting the alone peptide spectra from that of the combined samples we derive the spectra of the bound spectra, and based on double integration, relate this spectra to a concentration of the peptide that bound to the target protein.

annexin A2 = assay: EPR binding of L2 peptide to annexin A2; details: scrambled competitor 5∶1
Method: as §1
as §2, with “The experiments were done in triplicate with measurements taken at 12 db, in 5 scan intervals. All spectra were normalized to the same number of scans.” left out, “By subtracting the alone peptide spectra from that of the combined samples we derive the spectra of the bound spectra, and based on double integration, relate this spectra to a concentration of the peptide that bound to the target protein.” left out

[2] = test system: HPV16 infection of COS-1 cells; details: pre-incubation, compared to control peptides; ref [28]; cited from earlier work
Source text: Though the interaction between L1 and HSPG appears to be the primary initiator of epithelial cell infection, the electrostatic interaction to the negatively charged polysaccharides is generally thought to be non-specific, and may lead to a cascade of subsequent capsid conformational changes.

[3] = molecular target: T1, annexin A2 heterotetramer (A2t), purified human recombinant (human, UniProt P07355 1-339; P60903 1-97); assay: cell-based or functional assay
recombinant S100A10 [4] = molecular target: T2, recombinant S100A10 (human, UniProt P60903 1-97); assay: electron paramagnetic resonance (EPR) spectroscopy; details: both partners purified
T2 construct: also called S100A10 subunit; p11; source: E. coli BL21(DE3), pET23A vector, purified

[5] = molecular target: T1, annexin A2 heterotetramer (A2t), …; assay: electron paramagnetic resonance (EPR) spectroscopy; details: both partners purified
recombinant annexin A2 [6] = molecular target: T3, recombinant annexin A2 (human, UniProt P07355 1-339); assay: electron paramagnetic resonance (EPR) spectroscopy; details: both partners purified
T3 construct: also called ANXA2; annexin A2 subunit

[7] = molecular target: T4, cysteine-blocked S100A10 (αCys-S100A10) (human, UniProt P60903 1-97); assay: electron paramagnetic resonance (EPR) spectroscopy; paramagnetic-labeled peptide (20 µM) mixed with protein (100 µM) in 10 µL HEPES buffer (20 mM HEPES pH 7.4, 100 mM NaCl) in glass capillaries, room temperature; percent bound from subtraction of the free-peptide spectrum and double integration; 'relative' binding constant K = [AB]/[A][B]; details: both partners purified
T4 construct: source: E. coli BL21(DE3), purified, then treated with R1′ and gel filtered

recombinant S100A10 [8] = molecular target: T2, recombinant S100A10; assay: as above; details: both partners purified
[9] = molecular target: T1, annexin A2 heterotetramer (A2t), …; assay: as above; details: both partners purified
recombinant annexin A2 [10] = molecular target: T3, recombinant annexin A2; assay: as above; details: both partners purified

T1 sequence (P07355 whole entry, chain 1 of 2): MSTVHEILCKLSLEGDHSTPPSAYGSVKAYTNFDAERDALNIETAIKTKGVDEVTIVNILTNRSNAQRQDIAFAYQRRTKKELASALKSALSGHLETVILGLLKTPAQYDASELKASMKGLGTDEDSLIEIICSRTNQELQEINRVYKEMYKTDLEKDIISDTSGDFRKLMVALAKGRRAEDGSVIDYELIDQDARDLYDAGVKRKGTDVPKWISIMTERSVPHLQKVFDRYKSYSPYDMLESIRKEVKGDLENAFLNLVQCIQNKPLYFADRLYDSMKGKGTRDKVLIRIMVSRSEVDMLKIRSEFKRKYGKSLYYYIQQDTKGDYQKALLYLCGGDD
T1 sequence (P60903 whole entry, chain 2 of 2): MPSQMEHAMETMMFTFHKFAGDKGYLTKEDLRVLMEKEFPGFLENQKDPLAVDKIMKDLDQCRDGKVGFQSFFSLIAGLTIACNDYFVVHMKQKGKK
T2 sequence (P60903 whole entry): as the sequence (P60903 whole entry, chain 2 of 2) above
T3 sequence (P07355 whole entry): as the sequence (P07355 whole entry, chain 1 of 2) above
T4 sequence (P60903 whole entry): as the sequence (P60903 whole entry, chain 2 of 2) above

C-IVS-IESPVSDTALGTPEIFVSA [ScrL2, scrambled version of the L2_108–126 peptide, reference compound]
competition for L2_108–126 – A2t interaction [1]: No significant changes in spectra signal were observed | relative % bound to cysteine-blocked S100A10 (S100A10 subunit of A2t; S100A10 cysteine-blocked with R1′ (αCys-S100A10), paramagnetic-labeled peptide, mean of three separate experiments): 6.3% | competition for L2 peptide – S100A10 interaction (S100A10 subunit of A2t; scrambled competitor 5∶1): minimally competed off | competition for L2 peptide – annexin A2 interaction (annexin A2): partially competed off

L2_108–120: L2_108–120 peptide of ref 28 (LVEETSFIDAGAP; UniProt P03107 108-120, looked up, fragment)
reduction of infection of COS-1 cells [2]: approximately 60%

B1: HPV16 L1–L2(GGDD) mutant pseudovirions (complex, human papillomavirus type 16)
chain 1: MSLWLPSEATVYLPPVPVSKVVSTDEYVARTNIYYHAGTSRLLAVGHPYFPIKKPNNNKILVPKVSGLQYRVFRIHLPDPNKFGFPDTSFYNPDTQRLVWACVGVEVGRGQPLGVGISGHPLLNKLDDTENASAYAANAGVDNRECISMDYKQTQLCLIGCKPPIGEHWGKGSPCTNVAVNPGDCPPLELINTVIQDGDMVDTGFGAMDFTTLQANKSEVPLDICTSICKYPDYIKMVSEPYGDSLFFYLRREQMFVRHLFNRAGAVGENVPDDLYIKGSGSTANLASSNYFPTPSGSMVTSDAQIFNKPYWLQRAQGHNNGICWGNQLFVTVVDTTRSTNMSLCAAISTSETTYKNTNFKEYLRHGEEYDLQFIFQLCKITLTADVMTYIHSMNSTILEDWNFGLQPPPGGTLEDTYRFVTSQAIACQKHTPPAPKEDPLKKYTFWEVNLKEKFSADLDQFPLGRKFLLQAGLKAKPKFTLGKRKATPTTSSTSTTAKRKKRKL
chain 2: MRHKRSAKRTKRASATQLYKTCKQAGTCPPDIIPKVEGKTIAEQILQYGSMGVFFGGLGIGTGSGTGGRTGYIPLGTRPPTATDTLAPVRPPLTVDPVGPSDPSIVSGGDDTSFIDAGAPTSVPSIPPDVSGFSITTSTDTTPAILDINNTVTTVTTHNNPTFTDPSVLQPPTPAETGGHFTLSSSTISTHNYEEIPMDTFIVSTNPNTVTSSTPIPGSRPVARLGLYSRTTQQVKVVDPAFVTTPTKLITYDNPAYEGIDVDNTLYFSSNDNSINIAPDPDFLDIVALHRPALTSRRTGIRYSRIGNKQTLRTRSGKSIGAKVHYYYDLSTIDPAEEIELQTITPSTYTTTSHAASPTSINNGLYDIYADDFITDTSTTPVPSVPSTSLSGYIPANTTIPFGGAYNIPLVSGPDIPINITDQAPSLIPIVPGSPQYTIIADAGDFYLHPSYYMLRKRRKRLPYFFSDVSLAA
pseudo-infection of HaCaT cells (percent GFP-positive, 48 h) by the mutant PsV against wild-type PsV [3]: > 10 fold reduction

B2: HPV16 L2_(108–126) peptide, paramagnetic-labeled (C-IVS-LVEETSFIDAGAPTSVPSI) (peptide)
peptide: CIVSLVEETSFIDAGAPTSVPSI
modifications: also: paramagnetic label, site not given here
notes: source: synthetic peptide (Synthetic Biomolecules or Biomer Technology), HPLC purified to >95%
percent of peptide bound with ScrL2 at 5:1 (recombinant S100A10 [4]): 91% | percent of peptide bound with ScrL2 at 5:1 [5]: 75.8% | percent of peptide bound with ScrL2 at 5:1 (recombinant annexin A2 [6]): 17.7% | percent of peptide bound [7]: 73.1% | Ka (recombinant S100A10 [8]): 150000 M⁻¹ | percent of peptide bound (recombinant S100A10 [8]): 92.5% | Ka [9]: 100000 M⁻¹ | percent of peptide bound [9]: 78% | percent of peptide bound (recombinant annexin A2 [10]): 23.6%
